Target: T1, hPASK PAS-A domain (residues 131–237) (human, UniProt Q96RG2 131-237, uniformly 15N-labeled)
T1 sequence (looked up): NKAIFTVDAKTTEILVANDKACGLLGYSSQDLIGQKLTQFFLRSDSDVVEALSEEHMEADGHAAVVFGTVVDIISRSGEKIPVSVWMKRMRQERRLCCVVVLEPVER
Experiment: NMR titration

Question: How did the Kd turn out when MRGAAGLQREIQEGAYSGSCYHRDGL (peptide, UniProt Q96RG2 879-904, looked up) [PIM peptide (PASK AA 879–904)] was run?
Answer: The Kd was 2400 µM.
